The results in this text go back to article PMC5979045.

The target in the assay is Toll-like receptor 4 (TLR4) on mouse bone marrow-derived dendritic cells (mouse (endogenous in bone marrow-derived DCs)) (UniProt Q9QUK6). The assay can be described thus: flow cytometry on cells; immature bone marrow-derived DCs of WT C57 BL/6 mice, pre-incubated with IgG1 isotype, TLR2 blocking or TLR4 blocking antibody on ice for 1 h, then stained with anti-CD11c APC, anti-TLR2-FITC, anti-TLR4-PE-Cy7 and rTs-Hsp70-PE on ice for 30 min; rTs-Hsp70-PE and TLR2-FITC or TLR4-PE-Cy7 double positive cells among CD11c+ cells.
UniProt Q9QUK6, sequence (Q9QUK6 26-835): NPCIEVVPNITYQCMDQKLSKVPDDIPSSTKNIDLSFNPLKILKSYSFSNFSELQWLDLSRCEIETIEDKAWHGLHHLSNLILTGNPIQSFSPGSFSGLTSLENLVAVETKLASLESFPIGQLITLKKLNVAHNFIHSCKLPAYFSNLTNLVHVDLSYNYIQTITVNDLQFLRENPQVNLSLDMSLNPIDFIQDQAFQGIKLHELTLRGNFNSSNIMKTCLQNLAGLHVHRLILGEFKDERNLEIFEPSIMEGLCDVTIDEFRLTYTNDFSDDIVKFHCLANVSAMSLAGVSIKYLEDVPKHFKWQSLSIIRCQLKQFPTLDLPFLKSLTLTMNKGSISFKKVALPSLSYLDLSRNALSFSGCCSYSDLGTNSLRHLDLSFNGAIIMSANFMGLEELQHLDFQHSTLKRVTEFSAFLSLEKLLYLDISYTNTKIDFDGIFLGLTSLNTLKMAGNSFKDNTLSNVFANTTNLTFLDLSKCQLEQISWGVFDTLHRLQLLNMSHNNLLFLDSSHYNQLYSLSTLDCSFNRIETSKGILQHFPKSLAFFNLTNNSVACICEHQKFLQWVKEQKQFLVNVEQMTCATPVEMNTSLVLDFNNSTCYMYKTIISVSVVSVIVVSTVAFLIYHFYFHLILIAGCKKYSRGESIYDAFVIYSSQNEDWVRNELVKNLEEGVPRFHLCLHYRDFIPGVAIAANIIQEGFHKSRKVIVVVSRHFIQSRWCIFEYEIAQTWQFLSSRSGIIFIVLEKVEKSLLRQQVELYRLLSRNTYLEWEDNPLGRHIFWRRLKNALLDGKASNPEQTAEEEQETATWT

With “Recombinant Trichinella spiralis Heat shock protein 70 (natural protein)”, the percent of TLR4+ cells on CD11c+ DCs bound by rTs-Hsp70 came to 12.3%.
